Laboratory results as given in publication PMC10945830.

Biological target: Anthopleura YFP (AnthoYFP) from Neon Anthopleura sola (Anthopleura sola (endogenous in tentacles))
Assay: SEC-MALS; isolated AnthoYFP pigment; self-association, tetramer; conditions of the SEC-MALS run not told in the main text

stoichiometry N: 4
Substance: Anthopleura YFP (AnthoYFP) from Neon Anthopleura sola (natural protein)
